Measurements as given in paper PMC4592949 (eLife, 2015).

B3: NCOA4 383-522-GST (domain or fragment, human, UniProt Q13772-1 383-522, looked up)
chain: SMVTEDWLVQNHQDPCKVEEVCRANEPCTSFAECVCDENCEKEALYKWLLKKEGKDKNGMPVEPKPEPEKHKDSLNMWLCPRKEVIEQTKAPKAMTPSRIADSFQVIKNSPLSEWLIRPPYKEGSPKEVPGTEDRAGKQK
notes: also called NCOA4-GST; source: E. coli BL21 (DE3) Rosetta, purified (Ni-IMAC, glutathione Sepharose, Senp1 cleavage); not shown: His6-Sumo, N-terminal, cleaved; GST, C-terminal, kept

Experiments:
Settings in all cases: both partners purified
[1] = target: T1, apoferritin purified from horse spleen (containing both FTH1 and FTL) (horse, UniProt Q8MIP0 1-182; P02791 1-175); experiment: pull-down; NCOA4-GST fragments on glutathione Sepharose 4B, mixed with 50 μg apoferritin from equine spleen; 30 min at 4°C; 150 mM NaCl, 20 mM Tris pH 7.4, 2 mM DTT, 0.5% Nonidet P-40; SDS-PAGE and Coomassie stain
T1 construct: ferritin heavy chain (FTH1), horse, from spleen apoferritin; ferritin light chain (FTL), horse, from spleen apoferritin; Ferritin is a complex of 24 subunits, a mixture of heavy and light chains; also called horse spleen apoferritin; apoferritin purified from equine spleen; source: bought: Sigma A3641, apoferritin purified from equine spleen

[2] = target: B3; experiment: pull-down; NCOA4-GST fragments on glutathione Sepharose 4B (in one panel pre-treated with DFO), mixed with 50 μg recombinant HERC2 fragments; 30 min at 4°C; 150 mM NaCl, 20 mM Tris pH 7.4, 2 mM DTT, 0.5% Nonidet P-40; Coomassie stain
[3] = target: T2, recombinant FTH1-only ferritin complex, wild type (human, UniProt P02794 2-183); experiment: pull-down; NCOA4 383-522-GST on glutathione Sepharose 4B, mixed with 50 μg recombinant FTH1-only or FTL-only complexes; 30 min at 4°C; 150 mM NaCl, 20 mM Tris pH 7.4, 2 mM DTT, 0.5% Nonidet P-40; Coomassie stain
T2 construct: Purified as 450 kDa complexes; also called FTH1^WT; FTH1-only complexes; source: E. coli, purified (Ni-IMAC, Senp1 cleavage, Q-sepharose, Superose 6 gel filtration); not shown: His6-Sumo, N-terminal, cleaved; copies: 24

[4] = target: T3, recombinant HERC2 2540-2700 (human, UniProt O95714 2540-2700); experiment: pull-down; NCOA4-GST fragments on glutathione Sepharose 4B (in one panel pre-treated with DFO), mixed with 50 μg recombinant HERC2 fragments; 30 min at 4°C; 150 mM NaCl, 20 mM Tris pH 7.4, 2 mM DTT, 0.5% Nonidet P-40; Coomassie stain
T3 construct: HERC2, residues 2540-2700; source: E. coli, purified (Ni-IMAC, Senp1 cleavage, Q-sepharose, Superdex 75); not shown: His6-Sumo, N-terminal, cleaved
T3 sequence (looked up): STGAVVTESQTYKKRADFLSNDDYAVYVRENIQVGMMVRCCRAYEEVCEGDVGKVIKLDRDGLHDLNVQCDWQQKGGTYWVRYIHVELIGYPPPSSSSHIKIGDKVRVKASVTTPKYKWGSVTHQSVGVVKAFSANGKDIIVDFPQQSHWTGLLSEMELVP

T1 sequence (Q8MIP0 whole entry, chain 1 of 2, the tested form may be a part): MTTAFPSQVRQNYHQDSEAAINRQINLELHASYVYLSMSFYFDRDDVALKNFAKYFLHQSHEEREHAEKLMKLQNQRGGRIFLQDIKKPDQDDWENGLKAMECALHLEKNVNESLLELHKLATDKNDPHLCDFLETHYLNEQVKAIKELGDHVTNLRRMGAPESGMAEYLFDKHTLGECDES
T1 sequence (P02791 whole entry, chain 2 of 2, the tested form may be a part): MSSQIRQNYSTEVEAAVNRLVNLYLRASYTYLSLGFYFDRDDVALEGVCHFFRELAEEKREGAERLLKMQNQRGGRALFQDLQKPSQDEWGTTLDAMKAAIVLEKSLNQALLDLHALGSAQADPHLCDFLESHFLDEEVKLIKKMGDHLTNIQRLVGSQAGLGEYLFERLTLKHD
T2 sequence (P02794 2-183, one chain of several): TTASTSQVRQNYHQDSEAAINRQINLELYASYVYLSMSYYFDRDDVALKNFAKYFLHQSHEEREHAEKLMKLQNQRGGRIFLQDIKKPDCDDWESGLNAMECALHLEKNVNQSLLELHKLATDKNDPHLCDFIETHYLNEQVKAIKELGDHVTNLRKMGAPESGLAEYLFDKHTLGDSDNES

B1: NCOA4 475-522-GST (domain or fragment, human, UniProt Q13772-1 475-522, looked up)
chain: KAMTPSRIADSFQVIKNSPLSEWLIRPPYKEGSPKEVPGTEDRAGKQK
notes: source: E. coli BL21 (DE3) Rosetta, purified (Ni-IMAC, glutathione Sepharose, Senp1 cleavage); not shown: His6-Sumo, N-terminal, cleaved; GST, C-terminal, kept
binding result [1]: binds

B2: recombinant HERC2 CUL7 domain (amino acids 2553-2639) (domain or fragment)
chain: not shown
notes: also called minimal CUL7 domain; source: E. coli, purified (Ni-IMAC, Senp1 cleavage, Q-sepharose, Superdex 75); not shown: His6-Sumo, N-terminal, cleaved
binding result [2]: binds

B3
binding result [3]: binds | binding result [1]: binds | binding result [4]: binds
